# Assay: yeast display, Sf9 membrane polyspecificity reagent, FACS + sequencing; frameworks hold sequencing errors
# Summary of the method: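 A synthetic nanobody library was expressed on Saccharomyces cerevisiae BJ5465 by galactose induction for 36–48 hours. The library was stained for 1 hour at 4 °C with 10% biotinylated, detergent-solubilized Sf9 membrane reagent and enriched with streptavidin microbeads before FACS. Low and high (top ~1%) gates were set on anti-HA fluorescence for expression and streptavidin fluorescence for reagent binding, and each polyreactivity label reflects the gate of origin.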
row,Sequence,polyreactivity (PSR sort gate)
1,QVQHVESGGGLVQAGGSLRLSCAASGRISLSNAMGWYRQAPGKEREFVAAITKRSDRTYYADSVKGRFTISRDNAKNTVYLQMNSLKPEDTAVYYCAAKPLFGTRDDYWGLGTQVTVSS,low polyreactivity
2,QVQLEESGGGLVQAVGSLRLSCAASGFIFKRNAMGWYRQAPGKERELVAAITSRGGHTYYADSVKGRFTISRDNAKNTVYLQMNSLKAEDTAVYYCAATYASHDDYWGQGTQVTVSS,high polyreactivity
3,QVQLVESGGGLVQAGGSLRLSCAASGNIFPPNTMGWDRQAPGKDRELVAAISSRGSRTYYADSVKGRFTISRDNAKNTVYLQMNSLKPEDTAVYYCAAQQWQGGYLYDYWGQGTQVTVSS,high polyreactivity
4,QVQLVESGGCLVQAGGSLRLSCAASGYIFGYNAMGWYRQAPGKERELVAAISYSGGSTYYADSVKGRFTISRDNAKNTVYLQMNSLKPVDTAVYYCAAGAKWIYHYYSSLQYGYWGQGTQVTVSS,high polyreactivity
5,QVQLVESGGGLDQAGGSLRLRCAASGSTFLINAMGWYRQAPGKESELVAAISSSSGNTYYADSVKWRFTISRDNAKNTVYLQMNSLKPEDTAVYYCKAVFTRGVTQYDHYYWGQGTQVTVSS,high polyreactivity
6,HVQLVESGGGLVQAGGSLRLSCAASGNTFTEYAMGWYRQAPGKERELVASITGSGGSTYADSVRGRFTISRDNAKNTVYLQMNSLKPEDTAVYYCAKDPRYEYVGSEYGYWGQGTQVTVSS,low polyreactivity
7,QVQLVESGGGLVQAGGSLRLSCAASGITFYKNAMGWYRQAPGKERELVAAISSGGGTTYADSVKGRFTISRDNAKNTVYLQMNSLKPEDTAVYYCAADRRYYWYNYWGLGTQVTVSS,high polyreactivity
8,KVNIEESGGGLVQAGGSLRLSCAAYGSIFRYYAMGRYRQATGKERELVASISSSGGSTYYADSEKGRFTISRDNAKNTVYLQMNSLKPEDTAVYYCAAVRHRNYGYWGQGTQVTVSS,high polyreactivity
9,QVQLVESGGGLLQAGVSLRLSCAASGFIFSYNTMGWYRQPPGKEREFVAAITYSGGSTYYADSVKWRFTSSRHNAKNSVYLQMNTLKPEDTAVYYCAAPYPRGYFFGDSPKGYGGGYWGQGTQVTVSS,high polyreactivity
10,QVQLVESGGGLVQAGGSLRLSCAASGRIFGVYVMGWYRQAPGKERELVAAISWSGSHTYYADSVKGRFTISRDNAKNTVYLQMNSLKPEDTAVYYCAAGASLWRLGLKMGYWGQGTQVTVSS,low polyreactivity
11,QVQLVESGGGLVQAGGSLRLSCAASGFTYRNYAMGWYRQAPGKERELVAAISRGGGSTYYADSVKGRFTISRDNAKNTVYLQMNSLKPEDTAVYYCAVAYPFYVKTLFSPEADYNYWGQGTQVTVSS,high polyreactivity
12,QVQLVESGGGLVQAGGILRISCAASGRTFIMNAMGWYRQAPGKERELVAAINWSGGTSTYYADSVKGRFTISRDNAKNTVYFQMNSLKPEDTAVYYCAADYYSYVYYDYWGQGTLVTVSS,low polyreactivity
13,QVQLVESGGGLVQAGGSLRLSCAASGSIFGLNAMGWYRPAHGKETELVAAISGGSTNYADSVKGRFTISRDNAKNTVYLQMNSLKTDDTAVYYCAARARRRYYYWGQGTQVTVSS,high polyreactivity
14,QVQLVESGGGLVQAGGSLRIISAASGSTFRWYDMGWYRQAPGKEMELVAAITGSGGATYYADSVKGRFTIARDYAKNTVYLQKNRLKPEDTAVYYCAAVWWVPLAYDDYDYWGQGTQVTVSS,high polyreactivity
15,QVQLVESGGGLVQAGGSLRLSCAASGRTFWKYAMGWSRQAPGKERELVAAITDDDSTDYADSVKGRFTISRDNAKNTVYLQMTRLKPEDTAVYYCNADSSRYYRALEYWGQGTQVTVSA,low polyreactivity
16,QVQLVESGGGLVQAGGSLRLSCAASGSIFYRYTMGWYRQARGKERELVAAISSDGGSTYYADSVKGRFTISRDNAKKTVYLQMNSLKPEDTAVYYCAAGQDGHSDWGQGTQVTVSS,low polyreactivity
17,QVQLVESRGGLVQAGGSLRLSCAASGFIFSRYGMGWYRQAPGKERELVAAISRSGGSTYYADSVKGRFTISRDNAKNTVYVQMNSLKPEDTAVYYCATAYSWRNADWFAYSYDYWGQGTQVTVSS,low polyreactivity
18,QVQLVESGGGLVQAGGSLRLSCAASGRIFAYYVMGWYRQAPGKERELVAVISGSGSSTYYADSVKGRFTISRDNAKNTVYLQMNSLKPEDTAVYYCAASIQLYRSFITREYWGQGTQVSVSS,high polyreactivity
19,QVQLQESGGGLVQAGGSLRLSCAASSNNSTLDVKGWYRQAPGKEREFVASIGSGGITNYADSVKGRFTISRDNAKNTVYLQMNSLKPEDTAVYYCAVLNQAYTDLIYWGQGTQVTVSS,high polyreactivity
20,QVQLVESGGGLVQAGGSHRLSCAASGSTSGINAMGWYRQAPGKERELVAAIRLSGGRTYYADSVKGRFTISRDNAKNTVYLQMNSLKPEDTAVYYCAARYPSRVGYYYLGQGTQVTVSS,high polyreactivity
21,QVQLVESGGGLVQAGGSLRLSCAASGSTIGGYAMGWYRQAPGKERELVAAISWDDVRTYYADSVKGRFTISRDNAKNTVYLLMNSLKPEDTAVYYCNTDGLIAIRGLWWVEYDYWGQGTQVTVSS,low polyreactivity
22,QVQLVESGGGLVQAGGSLRLSCAASGSTFSPYTMGWYRQAPGKERELVAAITWSGVTTYYADSVKGRFTISRDNAKNTVYLQMNSLKPEDSAVYYCAAGRTRRKFDYWGQGTQVTVSS,low polyreactivity
23,QVQLVESGGGLVQAGGSLRLSCAASGIIFVKNAMGWYRQAPGKERELVAAISRSGARTYYADSVKGRFTISRDNEKNTVYLQMNSLKPEDTAVYYCNVYTRDRGYDYWGHGTQVTVSS,high polyreactivity
24,QVQLVESGGGLVQAGGSLRLSCAASGFNFDGNAMGWYRQEPGKEMELVARITWDDGSTYYADSVKGRFTISRDNAKNTVYLQMNSLKPEDTAVYYCNTDYGEYYSLDLLWWYIPYDYWGQGTQVTVSS,low polyreactivity
25,QVQLVESGGGLVQAGGSLRLSCAASGSTFGSYVMGWYRQAPGKERELVAAISQRGTSTYYADSVKGRFTISRDNAKNTVYLQMNSLKPEDTAVYYCNALYWQIGDDYWGQGTQVTVSS,high polyreactivity
26,QVQLVESGGGLVQAGGSLRLSCAASYAMGWYRQAPGKERELVATITSGGVSTYYADSVKGRFTISRDNAKNTVYLQMNSLKPEDTAVYYCAATASHSTSADYDYWGQGTQVTVSS,low polyreactivity
27,QVQLVESGGGLVQAGGSLRLSCAASGFTFYSYAMGWSRQAPGKERELVAAISGGGGSTYYADSVKGRFTISRDNAKNTVYLQMNSLKPEDTAVYYCAKRPAYRGYGLGYYWGQGTQVTVSS,high polyreactivity
28,QVQRVESGGRLVPPGGSLRLSCAASGRIFYTNAMGCYRQAPGKERELVARITGAGNTYYADSVKGRFTISRDNAKNTVYLQLNSLKPEDTAVYYCTADLYWRGDYWGQGTQVTVSS,high polyreactivity
29,QVQLVESGGGLVQAGGSLLLSCAASGSIFIYYTIGWYRQARGKARELVAAITRSGGDTYYADSVKGRFTISRDNAKNTVYLQMNSLKPEDTAVYYCAADSWLRYGTYEYWGQGTQVTVSS,high polyreactivity
30,QVQLVESGGGLVQAGGSLRISCAASGSIFYENTMGWYRQAPGKEREFVAAISRSGGSTYYADSVKGRFTISRDNAKNTVYLQMNSLKPEDTAVYYCAARSRPGYAVYYWGQGTQVTVSS,high polyreactivity

# Source: the nanobody polyreactivity screen of Harvey et al. (2022)
